{"source": "patent US20110020802", "about": "“NUCLEIC ACIDS, METHODS AND KITS FOR THE DIAGNOSIS OF DYT6 PRIMARY TORSION DYSTONIA” (Mount Sinai School of Medicine of New York University, published 2011)", "binders": {"B1": {"name": "THABS probe (dsDNA)", "DNA 1": "AGCAAGTAAGGGCAACTACTTCAT", "DNA 2": "ATGAAGTAGTTGCCCTTACTTGCT"}}, "target": "T1, THAP1 wild type (Homo sapiens, UniProt Q9NVV9 SEQ:1-213)", "T1 sequence": "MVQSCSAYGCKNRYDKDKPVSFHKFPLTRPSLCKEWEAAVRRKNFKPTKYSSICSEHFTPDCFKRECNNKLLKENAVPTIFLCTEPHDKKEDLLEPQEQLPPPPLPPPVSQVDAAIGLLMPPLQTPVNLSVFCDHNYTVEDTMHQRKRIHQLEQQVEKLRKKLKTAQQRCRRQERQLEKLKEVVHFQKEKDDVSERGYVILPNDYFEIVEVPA", "test": "EMSA; specific band supershifted by anti-THAP1 and competed by >200x unlabeled THABS; 150 mM KCl, 20 mM Tris pH 7.5, poly(dI-dC), room temperature", "conditions": "tags: N-terminal V5 (pcDNA3.1/nV5); label: 5'-32P", "description": "Double-stranded oligonucleotide was prepared by annealing synthetic complementary oligonucleotides (5′-[…]-3′ (SEQ ID NO: 17) and the reverse complement of this oligo 5′ […]-3′ (SEQ ID NO: 48)) in 20 mM Tris/HCl (pH 7.5), 10 mM MgCl2, 50 mM NaCl, 1 mM dithiothreitol (DTT) by heating for 5 min at 95° c, and cooling to room temperature overnight. Probes were end-labeled with [gamma-³²P]ATP using T4 polynucleotide kinase. Unincorporated nucleotides were removed by column chromatography (illustra MicroSpin™ G-25 Columns, GE Healthcare), according to the manufacturer's protocol. […] Following buffer at 150 V at room temperature, gels were dried and exposed to storage Phosphor screens that were scanned and analyzed using a Typhoon phosphorimager (GE Healthcare).\nThe two constructs were expressed in an in vitro transcription/translation (IVTT) system and assessed by western for equal levels of protein expression (FIG. 4A). When the radiolabeled THABS probe was incubated with the IVTT wild-type THAP1, a major shifted band was detected (FIG. 4B, lane 6, arrowhead). […]", "data": [{"binder": "B1", "values": [{"measurement": "binding result", "value": "binds"}]}]}
